Experimental findings from paper PMC7980517 are described below.

Targets include nsp7;nsp8ΔN (SARS-CoV-2;SARS-CoV-2, UniProt P0DTD1;P0DTD1 3860-3942;4019-4140, |); nsp7;nsp8 (SARS-CoV-2;SARS-CoV-2, UniProt P0DTD1;P0DTD1 3860-3942;3943-4140, |); nsp7 (SARS-CoV-2, UniProt P0DTD1 3860-3942); nsp8ΔN (SARS-CoV-2, UniProt P0DTD1 4019-4140); nsp8 (SARS-CoV-2, UniProt P0DTD1 3943-4140).
Common to all, as to assay: EMSA

GCUUUGAUUUCG (ssRNA) [12-mer ssRNA (FAM, EMSA)]: the binding result was “no binding” in the series with nsp7;nsp8ΔN; “binds” with nsp7;nsp8; “no binding” in the series with nsp7; “no binding” in the series with nsp8ΔN; “binds” in the series with nsp8.
